Source: PMC11051671 (Science Advances, 2024)

Biological target: the molecule itself
Assay: cryo-EM structure

B1: hZnT1-D47N/D255N double mutant (natural protein, human, UniProt Q9Y6M5 1-507, looked up)
chain: MGCWGRNRGRLLCMLALTFMFMVLEVVVSRVTSSLAMLSDSFHMLSNVLALVVALVAERFARRTHATQKNTFGWIRAEVMGALVNAIFLTGLCFAILLEAIERFIEPHEMQQPLVVLGVGVAGLLVNVLGLCLFHHHSGFSQDSGHGHSHGGHGHGHGLPKGPRVKSTRPGSSDINVAPGEQGPDQEETNTLVANTSNSNGLKLDPADPENPRSGDTVEVQVNGNLVREPDHMELEEDRAGQLNMRGVFLHVLGNALGSVIVVVNALVFYFSWKGCSEGDFCVNPCFPDPCKAFVEIINSTHASVYEAGPCWVLYLDPTLCVVMVCILLYTTYPLLKESALILLQTVPKQIDIRNLIKELRNVEGVEEVHELHVWQLAGSRIIATAHIKCEDPTSYMEVAKTIKDVFHNHGIHATTIQPEFASVGSKSSVVPCELACRTQCALKQCCGTLPQAPSGKDAEKTPAVSISCLELSNNLEKKPRRTKAENIPAVVIEIKNMPNKQPESSL
- stoichiometry N: 2
